Patent US20050037969A1 (ARBOR VITA, published 2005)
One block for each binder: values may come before it. Ends that are not written are not given here. * marks the point of attachment. Biotin = O=C1N[C@H]2[C@H](CS[C@H]2CCCCC(=O)*)N1

Key:
[1] = target: T1, GST-TAX-IP43 PDZ domain fusion protein (human, UniProt Q13884 109-180); experiment: A/G plate assays, Table 2 matrix
T1 construct: also called TAX43; not shown: glutathione S-transferase encoded by vector pGEX-3X (Pharmacia)
T1 sequence: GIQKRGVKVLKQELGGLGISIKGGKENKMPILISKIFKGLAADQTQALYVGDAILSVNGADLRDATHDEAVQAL

[2] = target: T2, GST-cytohesin binding protein PDZ domain fusion protein (Homo sapiens (Human), UniProt O60759 74-165); experiment: A/G plate assays, Table 2 matrix
T2 construct: also called CBP; not shown: glutathione S-transferase encoded by vector pGEX-3X (Pharmacia)
T2 sequence: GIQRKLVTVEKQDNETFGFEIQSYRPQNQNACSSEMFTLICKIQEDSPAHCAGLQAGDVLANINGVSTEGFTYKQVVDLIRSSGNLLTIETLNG

[3] = target: T3, GST-DLG5 (p-dlg) PDZ domain fusion protein (Human, UniProt Q8TDM6 1343-1583); experiment: A/G plate assays, Table 2 matrix
T3 construct: also called Human discs large protein p-dlg; not shown: glutathione S-transferase encoded by vector pGEX-3X (Pharmacia)
T3 sequence: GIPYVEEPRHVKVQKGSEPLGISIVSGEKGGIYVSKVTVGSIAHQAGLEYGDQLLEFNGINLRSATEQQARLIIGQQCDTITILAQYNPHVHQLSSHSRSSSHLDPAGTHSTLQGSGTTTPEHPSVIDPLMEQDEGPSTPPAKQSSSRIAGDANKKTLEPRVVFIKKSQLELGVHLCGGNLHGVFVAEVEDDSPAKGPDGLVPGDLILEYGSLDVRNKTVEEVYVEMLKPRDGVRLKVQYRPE

[4] = target: T4, GST-DVL1 PDZ domain fusion protein (human, UniProt O14640 247-339); experiment: A/G plate assays, Table 2 matrix
T4 construct: also called human dishevelled segment polarity protein homolog; not shown: glutathione S-transferase encoded by vector pGEX-3X (Pharmacia)
T4 sequence: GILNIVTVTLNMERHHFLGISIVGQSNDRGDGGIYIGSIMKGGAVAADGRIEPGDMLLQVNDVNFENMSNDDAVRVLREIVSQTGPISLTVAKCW

[5] = target: T5, KIAA0807 (PDZ domain)-GST fusion protein (human, UniProt Q6P0Q8 1104-1192); experiment: G assay on KIAA0807:GST fusion protein, 10 uM labeled peptide
T5 construct: also called K807; KIAA807; not shown: glutathione S-transferase encoded by vector pGEX-3X (Pharmacia)
T5 sequence: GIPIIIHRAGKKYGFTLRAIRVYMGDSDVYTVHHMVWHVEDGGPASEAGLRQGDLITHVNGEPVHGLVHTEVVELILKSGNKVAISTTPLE

[6] = target: T6, GST-mouse syntenin fusion protein (Mus musculus, UniProt O08992 108-286); experiment: A/G plate assays, Table 2 matrix
T6 construct: also called Mus musculus Syntenin; not shown: glutathione S-transferase encoded by vector pGEX-3X (Pharmacia)
T6 chain: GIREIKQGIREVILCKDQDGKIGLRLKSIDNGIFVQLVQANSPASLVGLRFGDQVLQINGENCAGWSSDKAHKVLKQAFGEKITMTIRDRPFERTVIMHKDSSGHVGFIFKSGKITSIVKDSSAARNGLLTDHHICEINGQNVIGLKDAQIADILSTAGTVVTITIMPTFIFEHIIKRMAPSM

[7] = target: T5, KIAA0807 (PDZ domain)-GST fusion protein; experiment: G assay on KIAA0807:GST fusion protein, 1 uM labeled peptide

- binding result [1]: binds
- binding result [2]: binds
- binding result [3]: binds
B1: Spectrin (beta) C-terminal peptide AA32L, biotinylated (peptide)
peptide: Biotin-SFPPCGHRENVPGQSLVSFV
notes: Marked (S), sticky; also called Spectrin beta (S); Spectrin β

- binding result [4]: binds
Binder: Biotin-TTNNNPNSAVNIKKIFTDV [KV1.3 C-terminal peptide AA33L, biotinylated]

- binding result [5]: binds
Binder: Biotin-LASKSAEEGKQIPDSLSTDL [DOCK2 C-terminal peptide AA40L, biotinylated]

- binding result [6]: binds
Binder: Biotin-QFMTADETRNLQNVDMKIGV (also called CD44 (long form)) [CD44 C-terminal peptide AA9L, biotinylated]

- binding result [7]: binds
Binder: Biotin-PSWRRSSLSESENATSLTTF (also called CXCR5) [BLR-1 C-terminal peptide AA45L, biotinylated]
